Data as given in the supplement of paper PMC10567573.

B1: TRAF3IP2 (parent)
chain: YGHDYPRAAYQQVIQPALPGQPLP

Variants of: B1
Assay: protein stability index of a GFP-peptide fusion (GPS, HEK-293T) (PSI 1-6); higher = more stable
Settings: c terminus: a fixed tail appended
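Note: lentivirally expressed fusions sorted by FACS into six bins by GFP to DsRed ratio, PSI derived from sequencing read proportions per bin multiplied by bin number.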

Point of comparison: YGHDYPRAAYQQVIQQALPGQPLP [P16Q], protein stability index 2.03. Against it:
- YGHDYPRAAYQQVIQIALPGQPLP [P16I] — higher, 2.79
- YGHDYPRAAYQQVIQMALPGQPLP [P16M] — lower, 1.89
- YGHDYPRAAYQQVIQPALPFQPLP [G20F] — lower, 1.8
- YGHDYPRAAYQQVIQPALPGQPHP [L23H] — lower, 1.59
- YGHDYPRAAYQQVIQPALPGQPWP [L23W] — lower, 1.72
- YGHDYPRAAYQQVIQPALPGQPRP [L23R] — higher, 2.28
- YGHDYPRAAYQQVIQPALPGQPVP [L23V] — higher, 2.5
- YGHDYPRAAYQQVIQPALPGQPDP [L23D] — higher, 2.18
- YGHDYPRAAYQQVIQPALPGQPTP [L23T] — lower, 1.99
- YGHDYPRAAYQQVIQPALPGQPSP [L23S] — lower, 2.02
- YGHDYPRAADQQVIQPALPGQPLP [Y10D] — lower, 1.97
- YGHDYPRAAKQQVIQPALPGQPLP [Y10K] — higher, 2.36
- YGHDYPRAAVQQVIQPALPGQPLP [Y10V] — higher, 2.13
- YGHDYPRAACQQVIQPALPGQPLP [Y10C] — higher, 2.39
- YGHDYPRAAPQQVIQPALPGQPLP [Y10P] — higher, 2.28
- YGHDYPRAAYQQVICPALPGQPLP [Q15C] — higher, 2.22
- YGHDYPRAAYQQVIHPALPGQPLP [Q15H] — higher, 2.46
- YGHDYPRAAYQQVINPALPGQPLP [Q15N] — lower, 1.63
- YGHDYPRAAYQQVIIPALPGQPLP [Q15I] — higher, 2.14
- YGGDYPRAAYQQVIQPALPGQPLP [H3G] — higher, 4.19
- YGSDYPRAAYQQVIQPALPGQPLP [H3S] — higher, 2.2
- YGRDYPRAAYQQVIQPALPGQPLP [H3R] — higher, 2.19
- YGWDYPRAAYQQVIQPALPGQPLP [H3W] — lower, 1.69
- YGHDYPRAAYQQVIQPYLPGQPLP [A17Y] — lower, 1.83
- YGHDYPRAAYQQVIQPFLPGQPLP [A17F] — higher, 2.48
- YGHDYPRAAYQQVIQPPLPGQPLP [A17P] — higher, 2.2
- YGHDYPRAAYQQVIQPNLPGQPLP [A17N] — lower, 1.29
- YGHDYPRAAYQQHIQPALPGQPLP [V13H] — lower, 2.02
- YGHDYPRAAYQQMIQPALPGQPLP [V13M] — lower, 1.95
- YGHDYPRAAYQQVIQPALPGCPLP [Q21C] — higher, 2.74
- YGHDYPRAAYLQVIQPALPGQPLP [Q11L] — higher, 3.77
- YGHDYPRAAYSQVIQPALPGQPLP [Q11S] — higher, 2.15
- YGHDYPRAAYKQVIQPALPGQPLP [Q11K] — higher, 2.24
- YGHDYPRAAYVQVIQPALPGQPLP [Q11V] — higher, 2.31
- CGHDYPRAAYQQVIQPALPGQPLP [Y1C] — higher, 2.52
- DGHDYPRAAYQQVIQPALPGQPLP [Y1D] — higher, 4.19
- NGHDYPRAAYQQVIQPALPGQPLP [Y1N] — higher, 4.21
- YGHDYPRAAYQQVGQPALPGQPLP [I14G] — lower, 1.92
- YGHDYPRAAYQQVLQPALPGQPLP [I14L] — lower, 1.77
- YGHDYPRAAYQQVQQPALPGQPLP [I14Q] — lower, 1.75
- YLHDYPRAAYQQVIQPALPGQPLP [G2L] — higher, 2.6
- YCHDYPRAAYQQVIQPALPGQPLP [G2C] — lower, 1.67
- YRHDYPRAAYQQVIQPALPGQPLP [G2R] — higher, 3.52
- YGHDYPRAAYQQVIQPALGGQPLP [P19G] — lower, 1.9
- YGHDYPRAAYQQVIQPALVGQPLP [P19V] — higher, 2.35
- YGHDYPRAAYQQVIQPALMGQPLP [P19M] — higher, 2.34
